Data set [1] is described as follows: Circular dichroism, helical content of synthetic peptides. In kind it is physicochemical. To be noted: estimated from ellipticity at 222 nm; 10 mM potassium phosphate pH 7.5, 100 mM KF, 4° C. (FIG. 4B). As to the method: FIG. 4B: Circular dichroism spectra of Rev34-40 (.box-solid.), Rev34-47 (S34) (.smallcircle.), Rev-like peptide clone 24 (.quadrature.), clone 57 peptide (.circle-solid.), and clone 41 peptide (.diamond.).
Circular dichroism was used to assess whether the selected peptides adopted α-helical conformations. Circular dichroism spectra were measured using an Aviv model 62DS spectropolarimeter. Samples were prepared in 10 mM potassium phosphate buffer, pH 7.5 and 100 mM KF. Spectra were recorded using a 1 cm pathlength cuvette at 4° C. and signal was averaged for 5 sec at each wavelength. Scans were repeated five times and averaged.

Data set [2] relates to Nut^- (a Nut site deletion) reporter. Description: Antitermination assay (β-galactosidase reporter in E. coli), Nut^- reporter. In kind it is cell-based, phage λ. On the set-up: key to X-gal: +++++, 200 units β-galactosidase/1 OD600 unit cells; ++++, 100-200 units; +++, 10-100 units; ++, 2-10 units; +, 1-10 units; -, background. The source says:
(§1) Synthetic oligonucleotide cassettes encoding HIV Rev (ma[…]-aaaan) (SEQ ID NO: 26), BIV Tat (mg[…]gggn) (SEQ ID NO: 27), and HIV Tat ([…]) (SEQ ID NO: 28) peptides were cloned into the unique BsmI and NcoI sites of pBRptacN^* (Franklin, J. Mol Biol 231, 343 (1993)), creating fusion proteins at amino acid 20 of the λ N protein. The sequence encoding the fusion protein was linked to a tac promoter.
(§2) A second pACYC-derived vector was constructed encoding a tac promoter linked to the phage λ termination site Nut and a β-galactosidase structural gene. […]
(§3) Plasmids were transformed into E. coli strain N567 (Franklin & Doelling, J. Bacteriol. 171, 2513 (1989)) and bacteria were grown on LB plates or in tryptone broth containing 50 mg/l ampicillin and/or 15 mg/l chloramphenicol. In the β-galactosidase colony color assay, the number of +s represents visual estimation of blue intensity after growing colonies on plates containing 0.08 mg/ml X-gal and 0.024 mg/ml IPTG (to induce the tac promoters) for ~48 hr at 34° C. β-galactosidase activity was also measured in permeabilized cells using an ONPG colorimetric assay (Sambrook et al. Molecular Cloning (Cold Spring Harbor Laboratory Press, Cold Spring Harbor, 1989)). […]

The test system of data set [3] is Nut reporter (λ Nut site, Box B). Nature of the data set: Antitermination assay (β-galactosidase reporter in E. coli), Nut reporter. The class given is cell-based, phage λ.
Source text: as §1, §2, §3

Data set [4] relates to HIV RRE. Nature of the data set: Antitermination assay (β-galactosidase reporter in E. coli), HIV RRE reporter. The class given is cell-based. Also noted: key to X-gal: +++++, 200 units β-galactosidase/1 OD600 unit cells; ++++, 100-200 units; +++, 10-100 units; ++, 2-10 units; +, 1-10 units; -, background. Conditions: HIV RRE reporter (Table 1).
Source text: as §1, §2, §3

Data set [5] relates to BIV TAR. Nature of the data set: Antitermination assay (β-galactosidase reporter in E. coli), BIV TAR reporter. The class given is cell-based. On the set-up: key to X-gal: +++++, 200 units β-galactosidase/1 OD600 unit cells; ++++, 100-200 units; +++, 10-100 units; ++, 2-10 units; +, 1-10 units; -, background. To be noted: BIV TAR reporter (Table 1).
Source text: as §1, §2, §3

The test system of data set [6] is HIV TAR. Nature of the data set: Antitermination assay (β-galactosidase reporter in E. coli), HIV TAR reporter. The class given is cell-based. On the set-up: key to X-gal: +++++, 200 units β-galactosidase/1 OD600 unit cells; ++++, 100-200 units; +++, 10-100 units; ++, 2-10 units; +, 1-10 units; -, background.
Source text: as §1, §2, §3

Where [7] appears, read: permeabilized cells, 1 hr IPTG induction.
[8] abbreviates: colony colour on X-gal/IPTG plates.

In the case of “14 amino acid wild-type Rev peptide: synthetic 14 amino acid Rev peptide, succinyl capped, four alanines and amide at the C-terminus”, the helical content in data set [1] is reported as 11%.

B1: N: wild-type phage λ N antiterminator protein (protein, UniProt P03045 1-107, looked up)
Antitermination protein N: MDAQTRRRERRAEKQAQWKAANPLLVGVSAKPVNRPILSLNRKPKSRVESALNPIDLTVLAEYHKQIESNLQRIERKNQRTWYSKPGERGITCSGRQKIKGKSIPLI
Consider B1, for which the X-gal entry in data set [2] (colony colour on X-gal/IPTG plates ~48 hr at 34° C., E. coli N567) is “-”; in data set [3] (colony colour on X-gal/IPTG plates ~48 hr at 34° C.) it was “+++++ (+++++, 200 units β-galactosidase/1 OD600 unit cells)”; in data set [4] (setting [8]), “-”; in data set [5] (setting [8]) it was “-”; in data set [6] (setting [8]), “-”. The ONPG in data set [2] (setting [7]) was 1.9 units β-galactosidase/1 OD600; in data set [3] (setting [7]), 1020 units β-galactosidase/1 OD600; in data set [4] (permeabilized cells) it was 2.5 units β-galactosidase/1 OD600; in data set [5] (permeabilized cells), 2.9 units β-galactosidase/1 OD600; in data set [6] (permeabilized cells) it was 2.4 units β-galactosidase/1 OD600.

Source of the values: patent US5834184A, “In vivo selection of RNA-binding peptides” (priority 1995, dated 1998).
